From patent US20220204580A1 (AstraZeneca / MedImmune, published 2022)
Numbered stars: 1 amine (or outer) side, 2 acyl side, 3 side chain; on linkers, the order of the positions; unused ones are H or OH. Bridge positions count the residues as written; N and C are the ends. Square brackets hold non-standard residues; d marks the D form. Side chains are listed from the residue outwards. Ends that are not written are not given here. * marks the point of attachment. C18 diacid = O=C(O)CCCCCCCCCCCCCCCCC(=O)*; γGlu = O=C(O)[C@H](CCC(=O)[*:2])N[*:1]; Aib = CC(C)(N)C(=O)O

T1: human amylin receptor (calcitonin receptor co-expressed with receptor activity modifying protein, RAMP3) (human, UniProt P30988 25-474; O60896 24-148)
T1 sequence (looked up) 1: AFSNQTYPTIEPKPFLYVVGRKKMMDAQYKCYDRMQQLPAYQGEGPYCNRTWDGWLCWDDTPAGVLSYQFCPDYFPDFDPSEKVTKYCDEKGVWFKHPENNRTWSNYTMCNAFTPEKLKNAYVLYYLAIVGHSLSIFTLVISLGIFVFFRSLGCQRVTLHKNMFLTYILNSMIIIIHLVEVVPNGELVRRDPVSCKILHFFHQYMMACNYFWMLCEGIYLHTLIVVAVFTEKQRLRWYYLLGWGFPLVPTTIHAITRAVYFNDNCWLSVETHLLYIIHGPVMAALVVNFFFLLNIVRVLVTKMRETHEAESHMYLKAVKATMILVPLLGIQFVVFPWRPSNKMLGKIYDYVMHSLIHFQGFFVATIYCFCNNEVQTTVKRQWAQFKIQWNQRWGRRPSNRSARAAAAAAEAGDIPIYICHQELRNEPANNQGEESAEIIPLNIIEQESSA
T1 sequence (looked up) 2: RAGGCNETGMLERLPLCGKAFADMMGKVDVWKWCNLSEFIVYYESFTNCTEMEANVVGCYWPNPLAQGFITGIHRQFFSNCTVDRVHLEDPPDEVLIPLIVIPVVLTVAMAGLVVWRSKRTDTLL

T2: human calcitonin receptor (human, UniProt P30988 25-474)
T2 sequence (looked up): T1 sequence (looked up) 1

B1: Peptide 131 (SEQ ID NO: 131) (peptide)
peptide: K([γGlu-C18 diacid])KCNTATCATQRLANFL[Aib]HSSHNFGPILPPTNVGSNTY-NH2
modifications: disulfide 3-8; N-terminus assumed
SMILES: CC[C@H](C)[C@H](NC(=O)[C@@H]1CCCN1C(=O)CNC(=O)[C@H](Cc1ccccc1)NC(=O)[C@H](CC(N)=O)NC(=O)[C@H](Cc1c[nH]cn1)NC(=O)[C@H](CO)NC(=O)[C@H](CO)NC(=O)[C@H](Cc1c[nH]cn1)NC(=O)C(C)(C)NC(=O)[C@H](CC(C)C)NC(=O)[C@H](Cc1ccccc1)NC(=O)[C@H](CC(N)=O)NC(=O)[C@H](C)NC(=O)[C@H](CC(C)C)NC(=O)[C@H](CCCNC(=N)N)NC(=O)[C@H](CCC(N)=O)NC(=O)[C@@H](NC(=O)[C@H](C)NC(=O)[C@@H]1CSSC[C@H](NC(=O)[C@H](CCCCN)NC(=O)[C@@H](N)CCCCNC(=O)CC[C@H](NC(=O)CCCCCCCCCCCCCCCCC(=O)O)C(=O)O)C(=O)N[C@@H](CC(N)=O)C(=O)N[C@@H]([C@@H](C)O)C(=O)N[C@@H](C)C(=O)N[C@@H]([C@@H](C)O)C(=O)N1)[C@@H](C)O)C(=O)N[C@@H](CC(C)C)C(=O)N1CCC[C@H]1C(=O)N1CCC[C@H]1C(=O)N[C@H](C(=O)N[C@@H](CC(N)=O)C(=O)N[C@H](C(=O)NCC(=O)N[C@@H](CO)C(=O)N[C@@H](CC(N)=O)C(=O)N[C@H](C(=O)N[C@@H](Cc1ccc(O)cc1)C(N)=O)[C@@H](C)O)C(C)C)[C@@H](C)O
B2: Peptide 135 (SEQ ID NO: 135) (peptide)
peptide: K([γGlu-C18 diacid])KCNTATCATQRLANFL[Aib]HSSNHFGPILPPTNVGSNTY-NH2
modifications: disulfide 3-8; N-terminus assumed
SMILES: CC[C@H](C)[C@H](NC(=O)[C@@H]1CCCN1C(=O)CNC(=O)[C@H](Cc1ccccc1)NC(=O)[C@H](Cc1c[nH]cn1)NC(=O)[C@H](CC(N)=O)NC(=O)[C@H](CO)NC(=O)[C@H](CO)NC(=O)[C@H](Cc1c[nH]cn1)NC(=O)C(C)(C)NC(=O)[C@H](CC(C)C)NC(=O)[C@H](Cc1ccccc1)NC(=O)[C@H](CC(N)=O)NC(=O)[C@H](C)NC(=O)[C@H](CC(C)C)NC(=O)[C@H](CCCNC(=N)N)NC(=O)[C@H](CCC(N)=O)NC(=O)[C@@H](NC(=O)[C@H](C)NC(=O)[C@@H]1CSSC[C@H](NC(=O)[C@H](CCCCN)NC(=O)[C@@H](N)CCCCNC(=O)CC[C@H](NC(=O)CCCCCCCCCCCCCCCCC(=O)O)C(=O)O)C(=O)N[C@@H](CC(N)=O)C(=O)N[C@@H]([C@@H](C)O)C(=O)N[C@@H](C)C(=O)N[C@@H]([C@@H](C)O)C(=O)N1)[C@@H](C)O)C(=O)N[C@@H](CC(C)C)C(=O)N1CCC[C@H]1C(=O)N1CCC[C@H]1C(=O)N[C@H](C(=O)N[C@@H](CC(N)=O)C(=O)N[C@H](C(=O)NCC(=O)N[C@@H](CO)C(=O)N[C@@H](CC(N)=O)C(=O)N[C@H](C(=O)N[C@@H](Cc1ccc(O)cc1)C(N)=O)[C@@H](C)O)C(C)C)[C@@H](C)O
B3: Peptide 130 (SEQ ID NO: 130) (peptide)
peptide: K([γGlu-C18 diacid])KCNTATCATQRLAEFL[Aib]HSSHNFGPILPPTNVGSNTY-NH2
modifications: disulfide 3-8; N-terminus assumed
SMILES: CC[C@H](C)[C@H](NC(=O)[C@@H]1CCCN1C(=O)CNC(=O)[C@H](Cc1ccccc1)NC(=O)[C@H](CC(N)=O)NC(=O)[C@H](Cc1c[nH]cn1)NC(=O)[C@H](CO)NC(=O)[C@H](CO)NC(=O)[C@H](Cc1c[nH]cn1)NC(=O)C(C)(C)NC(=O)[C@H](CC(C)C)NC(=O)[C@H](Cc1ccccc1)NC(=O)[C@H](CCC(=O)O)NC(=O)[C@H](C)NC(=O)[C@H](CC(C)C)NC(=O)[C@H](CCCNC(=N)N)NC(=O)[C@H](CCC(N)=O)NC(=O)[C@@H](NC(=O)[C@H](C)NC(=O)[C@@H]1CSSC[C@H](NC(=O)[C@H](CCCCN)NC(=O)[C@@H](N)CCCCNC(=O)CC[C@H](NC(=O)CCCCCCCCCCCCCCCCC(=O)O)C(=O)O)C(=O)N[C@@H](CC(N)=O)C(=O)N[C@@H]([C@@H](C)O)C(=O)N[C@@H](C)C(=O)N[C@@H]([C@@H](C)O)C(=O)N1)[C@@H](C)O)C(=O)N[C@@H](CC(C)C)C(=O)N1CCC[C@H]1C(=O)N1CCC[C@H]1C(=O)N[C@H](C(=O)N[C@@H](CC(N)=O)C(=O)N[C@H](C(=O)NCC(=O)N[C@@H](CO)C(=O)N[C@@H](CC(N)=O)C(=O)N[C@H](C(=O)N[C@@H](Cc1ccc(O)cc1)C(N)=O)[C@@H](C)O)C(C)C)[C@@H](C)O
B4: Peptide 132 (SEQ ID NO: 132) (peptide)
peptide: K([γGlu-C18 diacid])KCNTATCATQRLANFL[Aib]HSSPNFGPILPPTNVGSNTY-NH2
modifications: disulfide 3-8; N-terminus assumed
SMILES: CC[C@H](C)[C@H](NC(=O)[C@@H]1CCCN1C(=O)CNC(=O)[C@H](Cc1ccccc1)NC(=O)[C@H](CC(N)=O)NC(=O)[C@@H]1CCCN1C(=O)[C@H](CO)NC(=O)[C@H](CO)NC(=O)[C@H](Cc1c[nH]cn1)NC(=O)C(C)(C)NC(=O)[C@H](CC(C)C)NC(=O)[C@H](Cc1ccccc1)NC(=O)[C@H](CC(N)=O)NC(=O)[C@H](C)NC(=O)[C@H](CC(C)C)NC(=O)[C@H](CCCNC(=N)N)NC(=O)[C@H](CCC(N)=O)NC(=O)[C@@H](NC(=O)[C@H](C)NC(=O)[C@@H]1CSSC[C@H](NC(=O)[C@H](CCCCN)NC(=O)[C@@H](N)CCCCNC(=O)CC[C@H](NC(=O)CCCCCCCCCCCCCCCCC(=O)O)C(=O)O)C(=O)N[C@@H](CC(N)=O)C(=O)N[C@@H]([C@@H](C)O)C(=O)N[C@@H](C)C(=O)N[C@@H]([C@@H](C)O)C(=O)N1)[C@@H](C)O)C(=O)N[C@@H](CC(C)C)C(=O)N1CCC[C@H]1C(=O)N1CCC[C@H]1C(=O)N[C@H](C(=O)N[C@@H](CC(N)=O)C(=O)N[C@H](C(=O)NCC(=O)N[C@@H](CO)C(=O)N[C@@H](CC(N)=O)C(=O)N[C@H](C(=O)N[C@@H](Cc1ccc(O)cc1)C(N)=O)[C@@H](C)O)C(C)C)[C@@H](C)O
B5: Peptide 134 (SEQ ID NO: 134) (peptide)
peptide: K([γGlu-C18 diacid])KCNTATCATQRLANFL[Aib]HSSNNFGPILPPTPVGSNTY-NH2
modifications: disulfide 3-8; N-terminus assumed
SMILES: CC[C@H](C)[C@H](NC(=O)[C@@H]1CCCN1C(=O)CNC(=O)[C@H](Cc1ccccc1)NC(=O)[C@H](CC(N)=O)NC(=O)[C@H](CC(N)=O)NC(=O)[C@H](CO)NC(=O)[C@H](CO)NC(=O)[C@H](Cc1c[nH]cn1)NC(=O)C(C)(C)NC(=O)[C@H](CC(C)C)NC(=O)[C@H](Cc1ccccc1)NC(=O)[C@H](CC(N)=O)NC(=O)[C@H](C)NC(=O)[C@H](CC(C)C)NC(=O)[C@H](CCCNC(=N)N)NC(=O)[C@H](CCC(N)=O)NC(=O)[C@@H](NC(=O)[C@H](C)NC(=O)[C@@H]1CSSC[C@H](NC(=O)[C@H](CCCCN)NC(=O)[C@@H](N)CCCCNC(=O)CC[C@H](NC(=O)CCCCCCCCCCCCCCCCC(=O)O)C(=O)O)C(=O)N[C@@H](CC(N)=O)C(=O)N[C@@H]([C@@H](C)O)C(=O)N[C@@H](C)C(=O)N[C@@H]([C@@H](C)O)C(=O)N1)[C@@H](C)O)C(=O)N[C@@H](CC(C)C)C(=O)N1CCC[C@H]1C(=O)N1CCC[C@H]1C(=O)N[C@H](C(=O)N1CCC[C@H]1C(=O)N[C@H](C(=O)NCC(=O)N[C@@H](CO)C(=O)N[C@@H](CC(N)=O)C(=O)N[C@H](C(=O)N[C@@H](Cc1ccc(O)cc1)C(N)=O)[C@@H](C)O)C(C)C)[C@@H](C)O
B6: Peptide 133 (SEQ ID NO: 133) (peptide)
peptide: K([γGlu-C18 diacid])KCNTATCATQRLANFL[Aib]HSSSNFGPILPPTNVGSNTY-NH2
modifications: disulfide 3-8; N-terminus assumed
SMILES: CC[C@H](C)[C@H](NC(=O)[C@@H]1CCCN1C(=O)CNC(=O)[C@H](Cc1ccccc1)NC(=O)[C@H](CC(N)=O)NC(=O)[C@H](CO)NC(=O)[C@H](CO)NC(=O)[C@H](CO)NC(=O)[C@H](Cc1c[nH]cn1)NC(=O)C(C)(C)NC(=O)[C@H](CC(C)C)NC(=O)[C@H](Cc1ccccc1)NC(=O)[C@H](CC(N)=O)NC(=O)[C@H](C)NC(=O)[C@H](CC(C)C)NC(=O)[C@H](CCCNC(=N)N)NC(=O)[C@H](CCC(N)=O)NC(=O)[C@@H](NC(=O)[C@H](C)NC(=O)[C@@H]1CSSC[C@H](NC(=O)[C@H](CCCCN)NC(=O)[C@@H](N)CCCCNC(=O)CC[C@H](NC(=O)CCCCCCCCCCCCCCCCC(=O)O)C(=O)O)C(=O)N[C@@H](CC(N)=O)C(=O)N[C@@H]([C@@H](C)O)C(=O)N[C@@H](C)C(=O)N[C@@H]([C@@H](C)O)C(=O)N1)[C@@H](C)O)C(=O)N[C@@H](CC(C)C)C(=O)N1CCC[C@H]1C(=O)N1CCC[C@H]1C(=O)N[C@H](C(=O)N[C@@H](CC(N)=O)C(=O)N[C@H](C(=O)NCC(=O)N[C@@H](CO)C(=O)N[C@@H](CC(N)=O)C(=O)N[C@H](C(=O)N[C@@H](Cc1ccc(O)cc1)C(N)=O)[C@@H](C)O)C(C)C)[C@@H](C)O

Assays:
[1] = molecular target: T1, human amylin receptor (calcitonin …); test: cell-based or functional assay
[2] = molecular target: T2, human calcitonin receptor; test: cell-based or functional assay

| Binder | EC50 (cAMP production) [1] [nM] | Ratio (EC50 hCTR / EC50 hAMYR3) [1] | EC50 (cAMP production) [2] [nM] |
| --- | --- | --- | --- |
| B1 | 0.737 | 20.5 | 15.1 |
| B2 | 0.296 | 1.2 | 0.345 |
| B3 | 0.446 | 15 | 6.69 |
| B4 | 0.416 | 9.3 | 3.85 |
| B5 | 0.281 | 7.9 | 2.22 |
| B6 | 0.378 | 6.8 | 2.58 |
